Test results taken from PMC11259132, “Tyrosine phenol-lyase inhibitor quercetin reduces fecal phenol levels in mice” (PNAS Nexus, 2024).

Substrate: N[C@@H](Cc1ccc(O)cc1)C(=O)O
Assay: enzyme kinetics (Km), phenol by LC-MS
Assay type: biochemical, Morganella morganii
Details: pyridoxal […]'-phosphate (PLP)

B1: Tyrosine phenol-lyase (TPL) (Morganella morganii subsp. morganii KT) (protein)
chain: MMYPAEPYRIKSVETVSMIPREERIKRMKEAGYNTFLLNSKDVYVDLLTDSGTNAMSDKQWAGMMMGDEAYAGSENFFHLERTVQELFGFKHIVPTHQGRGAENLLSSLAIKPGQYVAGNMYFTTTRYHQEKNGATFIDIVRDEAHDAGLDVKFKGNIDIKKLEKLIAEKGAENIAYICLAVTVNLAGGQPVSMANMREVRQLCDKHGIKVFYDATRCVENAYFIKEQEEGFEDVSIKDIVHEMFSYADGCTMSGKKDCLVNIGGFLCMNDDDMFSAARELVVVYEGMPSYGGLAGRDMEAMAIGLREAMQFEYIEHRVKQVRYLGEKLKAAGVPIVEPVGGHAVFLDARRFCPHLTQDEFPAQSLAASIYMETGVRSMERGIISAGRNKETGDHHRPKLETVRLTIPRRVYTYAHMDLVADGIIKLFKHKEDIKGLKFVYEPKQLRFFTARFDYV
notes: recombinant TPL from M. morganii ssp. morganii (JCM1672), pET-15b
For B1, the Km was 270 µM.
